Reference: paper PMC8584774

Target: α-cardiac actin (F-actin) (Sus scrofa)
Test: co-sedimentation; high-speed cosedimentation; F-actin (0–40 µM) with 5 µM C0–C2 or 30 µM C2; 25 mM HEPES pH 7.3, 25 mM KCl, 5 mM MgCl2, 1 mM EGTA; 30 min at room temperature; 55,000 rpm 30 min; SDS-PAGE densitometry of supernatant and pellet; quadratic fit

Row | Substance | Kd [nM] | percent of C2 in the pellet fraction [%]
1 | MyBPC C0–C2 D389V (from UniProt Q14896 1-452) (domain or fragment) | 2800 | –
2 | MyBPC C0–C2 wt (cardiac myosin-binding protein C, N-terminal fragment with subdomains C0 to C2) (from UniProt Q14896 1-452) (domain or fragment) | 3200 | –
3 | MyBPC C2 wt (isolated IgI-like C2 domain of cardiac myosin-binding protein C) (from UniProt Q14896 362-452) (domain or fragment) | – | < 2
